B1: Patched domain-containing protein 1 (Mus musculus), Q14B62 (parent)
chain: MLRQVLHRGLRTCFSRLGHFIASHPVFFASAPVLISILLGASFSRYQVEESVEHLLAPQHSLAKIERNLVNSLFPVNRSKHRLYSDLQTPGRYGRVIVTSYQKANMLDQHHTDLILKLHTAVTKIQVPRPGFNYTFAHICVLNNDKTCIVDDIVHVLEELKNARATNRTNFAITYPITHLKDGRAVYNGHQLGGVTVHSKDRVKSAEAIQLTYYLQSINSLNDMVAERWESSFCDTVKLFQKSNSKVKIYPYTSSSLREDFQKTSRVSERYLVTSLILVVTMAILCCSMQDCVRSKPWLGLLGLVTISLATLTAAGIINLTGGKYNSTFLGVPFVMLGHGLYGTFEMLSSWRKTREDQHVKERTAEVYADSMLSFSLTTAMYLVTFGIGASPFTNIEAARIFCCNSCIAILFNYLYVLSFYGSSLVFTGYIENNYQHSIFCRKVPKPDVLQEKPAWYRFLLTARFSEETAEGEEANTYESHLLVCFLKRYYCDWITNTYVKPFVVLFYLIYISFALMGYLQVSEGSDLSNIVATATQTIEYTTAHQKYFNNYSPVIGFYIYESIEYWNSSVQEDVLEYTKGFVRISWFESYLNYLRKLNVSTDLPKKNFTDMLRNSFLKTPQFSHFQEDIIFSKKYNDEVDVVASRMFLVAKTMETNREELYDLLETLRRLSVTSKVKFIVFNPSFVYMDRYASSLGAPLHNSCISALFLLFFSAFLVADSLINVWITLTVVSVEFGVIGFMTLWKVELDCISVLCLIYGINYTIDNCAPLLSTFVLGKDFTRTKWVKNALEVHGVAILQSYLCYIVGLFPLAAVPSNLTCTLFRCLFLIAFVTFFHCFAILPVILTFLPPSKKKRKEKKNPENREEIECVEMVDIDSTRVVDQITTV
partner: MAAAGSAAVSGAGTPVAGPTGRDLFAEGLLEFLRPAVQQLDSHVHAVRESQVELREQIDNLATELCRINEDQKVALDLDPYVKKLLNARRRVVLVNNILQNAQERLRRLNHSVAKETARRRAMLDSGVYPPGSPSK

Variants of: B1
Conditions: with snapn_mouse Snapin
In the case of P75L, the “effect of a mutation on the interaction” value is reported as “decreasing interaction strength”. P75Q was tested, and the “effect of a mutation on the interaction” value was “decreasing interaction strength”. Y213C was tested, and the “effect of a mutation on the interaction” value was “decreasing interaction strength”. With V150M the “effect of a mutation on the interaction” value was “with no effect”. In the case of K181T, the “effect of a mutation on the interaction” value is reported as “decreasing interaction strength”. In the case of Q102R, the “effect of a mutation on the interaction” value is reported as “with no effect”. With D527E the “effect of a mutation on the interaction” value was “increasing interaction strength”. For V195I, the “effect of a mutation on the interaction” value was “decreasing interaction strength”. With F549C the “effect of a mutation on the interaction” value was “increasing interaction strength”. In the case of T602A, the “effect of a mutation on the interaction” value is reported as “increasing interaction strength”. S51N was tested, and the “effect of a mutation on the interaction” value was “with no effect”. With L73F the “effect of a mutation on the interaction” value was “with no effect”.
